Test results from patent US20090324700A1, “METHODS AND COMPOSITIONS FOR THE INHIBITION OF CATHEPSINS” (priority 2003, published 2009).

What was measured:
cathepsin B = target: T1, cathepsin B (Homo sapiens, UniProt P07858); assay: Protease specificity of Spi2A: cathepsin B; assay type: biochemical; settings: protease 20 nM, Spi2A 200 nM, 1 h at 37° C; FIG. 6B
T1 construct: purchased Calbiochem or Athens Research and Technology
Protocol: Protease specificity of Spi2A. RelA^−/− MEFs were transduced with retrovirus encoding Spi2A with a C-terminal 3×FLAG epitope tag and Spi2A-3×FLAG purified using a method described previously (Cooley et al., 1998). Briefly, cells (3×10^9) were lysed and Spi2A-3×FLAG (75 μg) purified by batch Q-Fast Flow ion-exchange chromatography (Pharmacia Biotech) after elution at 160-220 mM NaCl followed by anti-FLAG antibody columns, performed according to manufacturer's instructions (Sigma-Aldrich). Spi2A-3×FLAG was dialysed into PBS and stored as aliquots at −80° C. until needed.
Proteases were purchases from the manufacturers (Calbiochem or Athens Research and Technology) except granzymes A and B which were purified as described (Hanna et al., 1993) and cathespin V and K, which were purified as described (Bromme et al., 1999; Linnevers et al., 1997). Proteases (20 nM) were incubated in the appropriate assay buffer with Spi2A at 200 nM (at least 10-fold excess of inhibitor to maintain pseudo-first order conditions) for 1 h at 37° C. Control samples included only the enzyme, without the inhibitor. At the end of 1 h protease activity was assayed. […] Substrate hydrolysis was measured in a fluorescence microtiter plate reader (Spectramax Gemini XS, Molecular Devices). Percentage inhibition was calculated from the residual enzyme activity compared to no Spi2A controls. […]

RelA^−/− MEFs [1] = assay: Survival assay, sphingosine, RelA^−/− MEFs; assay type: cell-based, mouse; settings: sphingosine 10-50 μM, 2 h; FIG. 7B
Protocol: Survival Assays. Although RelA^−/− MEFs are markedly more sensitive to TNF-α compared to RelA^+/+ MEFs, low levels of CHX (0.1 μg/ml) were used in the survival assays. This was to suppress any protective activity of constitutively active non-RelA NF-κB molecules that are present in RelA^−/− MEFs (FIG. 4). Thus, RelA^−/− MEFs were treated with CHX and TNF-α (R&D) and the number of live GFP-positive adherent cells was counted by flow cytometry after 16 h, if not indicated otherwise. Live cells were defined as those that excluded propidium iodide (PI-negative) and had the appropriate size, as defined by forward and side scatter characteristics (Coligan et al., 1995). For RelA^+/+ MEFs, TNF-α-cytotoxicity was determined after 16 h with CHX (10 μg/ml), if not indicated otherwise. Cathepsin B activity was inhibited by a 1 h pre-treatment of MEFs with CA-074 Me (30 μM) (Peptide Institute). […] RelA^−/− MEFs were treated with (10-50 μM) sphingosine (Calbiochem) and the number of live GFP-positive adherent cells was counted by flow cytometry after 2 h.

RelA^−/− MEFs [2] = assay: Mitochondrial membrane potential (JC-1), RelA^−/− MEFs; assay type: cell-based, mouse; settings: TNF-α 0.2 ng/ml, CHX 0.1 μg/ml; FIG. 5C
Protocol: (§1) Death effector assays. Death effector pathways were induced in […] MEFs by treatment TNF-α (0.2 ng/ml) and CHX (0.1 μg/ml). Assays for executioner proteases (caspases and cathepsin B) were performed on crude cytoplasmic extracts (Stegh et al., 2000). Briefly, MEFs (10^6) were lysed in 10 mM Tris-Cl, pH 7.5, 100 mM NaCl, 1 mM EDTA, 0.01% Triton X-100 (50 μl) for 30 min on ice then centrifuged at 15,000 g for 30 min at 4° C. and the supernatant recovered. Protein concentration was determined by Lowry assay (DC-protein assay kit, Biorad). Western immunoblots were performed on crude cytosolic extracts (50 μg per lane) using standard protocols and probed with the following antibodies: goat anti-mouse Bid antiserum (1 μg/ml; R&D systems), rabbit anti-human caspase 9 antiserum (2 μg/ml; Cell Signaling Technology), rabbit anti-human caspase 3 antiserum (2 μg/ml; Cell Signaling Technology), mouse anti-human caspase 8 monoclonal antibody clone 12F5 (1 μg/ml; Axxora). […]
(§2) Mitochondrial membrane potential and ROS production were measured using the fluorescent dyes JC-1 (3 μg/ml) and dihydroethidium (HE) (5 μM)(Molecular Probes) respectively, and flow cytometry according to the manufacturer's instructions.

RelA^−/− MEFs [3] = assay: ROS production (dihydroethidium), RelA^−/− MEFs; assay type: cell-based, mouse; settings: TNF-α 0.2 ng/ml, CHX 0.1 μg/ml; FIG. 5D
Protocol: as §1, §2

NF-κB = NF-κB activation, EMSA, RelA^−/− MEFs; assay type: cell-based, mouse; settings: TNF-α stimulation
Protocol: The possibility that Spi2A protects from TNF-α-induced apoptosis by directly activating NF-κB was examined. Therefore, using electrophoretic mobility shift assays (EMSAs), studies were conducted to determine whether Spi2A itself promotes NF-κB activation in nuclei from Rel A^−/− MEFs transduced with Spi2A or whether the abrogation of Spi2A mRNA up-regulation by Spi2A antisense message inhibits NF-κB activation in Rel A^+/+ MEFs. […] In Rel A^+/+ MEFs, super-shift analysis confirmed the induction of p50/Rel A by TNF-α. […] Thus, the anti-apoptotic activity of Spi2A is unlikely to be mediated through the modulation of NF-κB activation.

B1: Spi2A: murine Spi2A polypeptide, SEQ ID NO:2; purified as C-terminal 3×FLAG protein or expressed from MIGR1 retrovirus in cells and bone-marrow chimeras (protein, listed as Mus musculus)
chain: MAGVSPAVFGCPDVTLGRNTAVREVQENVTSVDSLTLVSSNTDFAFSLYRKLVLKNPDENVVFSPFSICTALALLSLGAKSNTLKEILEGLKFNLTETPEPDIHQGFRYLLDLLSQPGNQVQISTGSALFIEKHLQILAEFKEKARALYQAEAFTADFQQPLKATKLINDYVSNHTQGKIKELISGLKESTLMVLVNYIYFKGKWKNPFDPNDTFKSEFYLDEKRSVIVSMMKTGYLTTPYFRDEELSCTVVELKYTGNASAMFILPDQGRMQQVEASLQPETLRKWKNSLKPRMIHELRLPKFSISTDYSLEHILPELGIREVFSTHADLSAITGTKDLRVSQVVHKAVLDVAEKGTEAAAATGMAGVGCCAVFDFLEIFFNRPFLMIISDTKAHIALFMAKVTNPERSTNFPNGEGASSQRLESKRLCFGDPLCLIGQ
modifications: C-terminal 3xFLAG tag
notes: purified as C-terminal 3×FLAG protein or expressed from MIGR1 retrovirus in cells and bone-marrow chimeras
Cathepsin B
  Inhibition of protease by Spi2A (percentage inhibition): extended to all of the lysosomal, papain-like proteases that were examined
RelA^−/− MEFs [1]
  Protection from death after treatment with sphingosine: could protect
RelA^−/− MEFs [2]
  mitochondrial depolarization: virtually abrogated
RelA^−/− MEFs [3]
  production of reactive oxygen species (ROS): suppressed
NF-κB
  Expression of NF-κB complexes (p50/p50, p50/Rel) in nuclei: did not affect
